In IntAct's records for PubMed 25910212:

B1: Chorion-specific transcription factor GCMb (Homo sapiens), O75603 (parent)
chain: MPAAAVQEAVGVCSYGMQLSWDINDPQMPQELALFDQFREWPDGYVRFIYSSDEKKAQRHLSGWAMRNTNNHNGHILKKSCLGVVVCTQACTLPDGSRLQLRPAICDKARLKQQKKACPNCHSALELIPCRGHSGYPVTNFWRLDGNAIFFQAKGVHDHPRPESKSETEARRSAIKRQMASFYQPQKKRIRESEAEENQDSSGHFSNIPPLENPEDFDIVTETSFPIPGQPCPSFPKSDVYKATCDLATFQGDKMPPFQKYSSPRIYLPRPPCSYELANPGYTNSSPYPTLYKDSTSIPNDTDWVHLNTLQCNVNSYSSYERSFDFTNKQHGWKPALGKPSLVERTNHGQFQAMATRPYYNPELPCRYLTTPPPGAPALQTVITTTTKVSYQAYQPPAMKYSDSVREVKSLSSCNYAPEDTGMSVYPEPWGPPVTVTRAASPSGPPPMKIAGDCRAIRPTVAIPHEPVSSRTDEAETWDVCLSGLGSAVSYSDRVGPFFTYNNEDF
partner: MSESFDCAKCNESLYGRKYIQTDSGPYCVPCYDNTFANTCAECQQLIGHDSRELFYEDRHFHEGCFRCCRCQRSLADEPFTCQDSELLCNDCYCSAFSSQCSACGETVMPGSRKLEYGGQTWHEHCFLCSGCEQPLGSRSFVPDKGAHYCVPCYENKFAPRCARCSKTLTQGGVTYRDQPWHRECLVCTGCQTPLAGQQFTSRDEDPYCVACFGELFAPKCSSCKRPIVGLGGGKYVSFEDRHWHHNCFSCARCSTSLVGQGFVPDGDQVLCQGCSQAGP
B2: Carbonyl reductase [NADPH] 3 (Homo sapiens), O75828 (parent)
chain: MSSCSRVALVTGANRGIGLAIARELCRQFSGDVVLTARDVARGQAAVQQLQAEGLSPRFHQLDIDDLQSIRALRDFLRKEYGGLNVLVNNAAVAFKSDDPMPFDIKAEMTLKTNFFATRNMCNELLPIMKPHGRVVNISSLQCLRAFENCSEDLQERFHSETLTEGDLVDLMKKFVEDTKNEVHEREGWPNSPYGVSKLGVTVLSRILARRLDEKRKADRILVNACCPGPVKTDMDGKDSIRTVEEGAETPVYLALLPPDATEPQGQLVHDKVVQNW
B3: SWI/SNF-related matrix-associated actin-dependent regulator of chromatin subfamily A member 2 (Homo sapiens), P51531-1 (parent)
chain: MSTPTDPGAMPHPGPSPGPGPSPGPILGPSPGPGPSPGSVHSMMGPSPGPPSVSHPMPTMGSTDFPQEGMHQMHKPIDGIHDKGIVEDIHCGSMKGTGMRPPHPGMGPPQSPMDQHSQGYMSPHPSPLGAPEHVSSPMSGGGPTPPQMPPSQPGALIPGDPQAMSQPNRGPSPFSPVQLHQLRAQILAYKMLARGQPLPETLQLAVQGKRTLPGLQQQQQQQQQQQQQQQQQQQQQQQPQQQPPQPQTQQQQQPALVNYNRPSGPGPELSGPSTPQKLPVPAPGGRPSPAPPAAAQPPAAAVPGPSVPQPAPGQPSPVLQLQQKQSRISPIQKPQGLDPVEILQEREYRLQARIAHRIQELENLPGSLPPDLRTKATVELKALRLLNFQRQLRQEVVACMRRDTTLETALNSKAYKRSKRQTLREARMTEKLEKQQKIEQERKRRQKHQEYLNSILQHAKDFKEYHRSVAGKIQKLSKAVATWHANTEREQKKETERIEKERMRRLMAEDEEGYRKLIDQKKDRRLAYLLQQTDEYVANLTNLVWEHKQAQAAKEKKKRRRRKKKAEENAEGGESALGPDGEPIDESSQMSDLPVKVTHTETGKVLFGPEAPKASQLDAWLEMNPGYEVAPRSDSEESDSDYEEEDEEEESSRQETEEKILLDPNSEEVSEKDAKQIIETAKQDVDDEYSMQYSARGSQSYYTVAHAISERVEKQSALLINGTLKHYQLQGLEWMVSLYNNNLNGILADEMGLGKTIQTIALITYLMEHKRLNGPYLIIVPLSTLSNWTYEFDKWAPSVVKISYKGTPAMRRSLVPQLRSGKFNVLLTTYEYIIKDKHILAKIRWKYMIVDEGHRMKNHHCKLTQVLNTHYVAPRRILLTGTPLQNKLPELWALLNFLLPTIFKSCSTFEQWFNAPFAMTGERVDLNEEETILIIRRLHKVLRPFLLRRLKKEVESQLPEKVEYVIKCDMSALQKILYRHMQAKGILLTDGSEKDKKGKGGAKTLMNTIMQLRKICNHPYMFQHIEESFAEHLGYSNGVINGAELYRASGKFELLDRILPKLRATNHRVLLFCQMTSLMTIMEDYFAFRNFLYLRLDGTTKSEDRAALLKKFNEPGSQYFIFLLSTRAGGLGLNLQAADTVVIFDSDWNPHQDLQAQDRAHRIGQQNEVRVLRLCTVNSVEEKILAAAKYKLNVDQKVIQAGMFDQKSSSHERRAFLQAILEHEEENEEEDEVPDDETLNQMIARREEEFDLFMRMDMDRRREDARNPKRKPRLMEEDELPSWIIKDDAEVERLTCEEEEEKIFGRGSRQRRDVDYSDALTEKQWLRAIEDGNLEEMEEEVRLKKRKRRRNVDKDPAKEDVEKAKKRRGRPPAEKLSPNPPKLTKQMNAIIDTVINYKDRCNVEKVPSNSQLEIEGNSSGRQLSEVFIQLPSRKELPEYYELIRKPVDFKKIKERIRNHKYRSLGDLEKDVMLLCHNAQTFNLEGSQIYEDSIVLQSVFKSARQKIAKEEESEDESNEEEEEEDEEESESEAKSVKVKIKLNKKDDKGRDKGKGKKRPNRGKAKPVVSDFDSDEEQDEREQSEGSGTDDE
B4: U4/U6 small nuclear ribonucleoprotein Prp31 (Homo sapiens), Q8WWY3 (parent)
chain: MSLADELLADLEEAAEEEEGGSYGEEEEEPAIEDVQEETQLDLSGDSVKTIAKLWDSKMFAEIMMKIEEYISKQAKASEVMGPVEAAPEYRVIVDANNLTVEIENELNIIHKFIRDKYSKRFPELESLVPNALDYIRTVKELGNSLDKCKNNENLQQILTNATIMVVSVTASTTQGQQLSEEELERLEEACDMALELNASKHRIYEYVESRMSFIAPNLSIIIGASTAAKIMGVAGGLTNLSKMPACNIMLLGAQRKTLSGFSSTSVLPHTGYIYHSDIVQSLPPDLRRKAARLVAAKCTLAARVDSFHESTEGKVGYELKDEIERKFDKWQEPPPVKQVKPLPAPLDGQRKKRGGRRYRKMKERLGLTEIRKQANRMSFGEIEEDAYQEDLGFSLGHLGKSGSGRVRQTQVNEATKARISKTLQRTLQKQSVVYGGKSTIRDRSSGTASSVAFTPLQGLEIVNPQAAEKKVAEANQKYFSSMAEFLKVKGEKSGLMST
partner: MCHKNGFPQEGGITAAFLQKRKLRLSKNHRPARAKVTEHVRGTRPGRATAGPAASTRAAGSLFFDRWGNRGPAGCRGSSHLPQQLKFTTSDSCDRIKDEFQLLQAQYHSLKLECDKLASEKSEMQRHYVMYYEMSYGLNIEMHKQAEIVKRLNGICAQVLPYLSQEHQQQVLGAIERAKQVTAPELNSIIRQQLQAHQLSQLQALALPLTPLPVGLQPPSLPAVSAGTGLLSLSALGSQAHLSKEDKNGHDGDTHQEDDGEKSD
B5: Homeobox protein SIX1 (Homo sapiens), Q15475 (parent)
chain: MSMLPSFGFTQEQVACVCEVLQQGGNLERLGRFLWSLPACDHLHKNESVLKAKAVVAFHRGNFRELYKILESHQFSPHNHPKLQQLWLKAHYVEAEKLRGRPLGAVGKYRVRRKFPLPRTIWDGEETSYCFKEKSRGVLREWYAHNPYPSPREKRELAEATGLTTTQVSNWFKNRRQRDRAAEAKERENTENNNSSSNKQNQLSPLEGGKPLMSSSEEEFSPPQSPDQNSVLLLQGNMGHARSSNYSLPGLTASQPSHGLQTHQHQLQDSLLGPLTSSLVDLGS
partner: B4 partner
B6: Mothers against decapentaplegic homolog 3 (Homo sapiens), P84022 (parent)
chain: MSSILPFTPPIVKRLLGWKKGEQNGQEEKWCEKAVKSLVKKLKKTGQLDELEKAITTQNVNTKCITIPRSLDGRLQVSHRKGLPHVIYCRLWRWPDLHSHHELRAMELCEFAFNMKKDEVCVNPYHYQRVETPVLPPVLVPRHTEIPAEFPPLDDYSHSIPENTNFPAGIEPQSNIPETPPPGYLSEDGETSDHQMNHSMDAGSPNLSPNPMSPAHNNLDLQPVTYCEPAFWCSISYYELNQRVGETFHASQPSMTVDGFTDPSNSERFCLGLLSNVNRNAAVELTRRHIGRGVRLYYIGGEVFAECLSDSAIFVQSPNCNQRYGWHPATVCKIPPGCNLKIFNNQEFAALLAQSVNQGFEAVYQLTRMCTIRMSFVKGWGAEYRRQTVTSTPCWIELHLNGPLQWLDKVLTQMGSPSIRCSSVS
partner: B4 partner

Variants of: B1
Conditions: with fhl3_human FHL3, Q13643

| Variant | effect of a mutation on the interaction |
| --- | --- |
| R47L | disrupting interaction strength |
| G63S | with no effect |

Variants of: B2
Conditions: with sdcb1_human SDCBP
Target sequence in this assay (O00560 whole entry): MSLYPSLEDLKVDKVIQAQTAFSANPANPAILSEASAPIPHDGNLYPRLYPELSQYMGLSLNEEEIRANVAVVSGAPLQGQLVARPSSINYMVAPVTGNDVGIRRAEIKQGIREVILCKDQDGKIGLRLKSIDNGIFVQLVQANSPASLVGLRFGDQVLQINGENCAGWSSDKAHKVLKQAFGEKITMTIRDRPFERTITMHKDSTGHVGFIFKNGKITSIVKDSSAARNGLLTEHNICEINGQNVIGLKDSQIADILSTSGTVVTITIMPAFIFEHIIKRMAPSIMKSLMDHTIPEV

| Variant | effect of a mutation on the interaction |
| --- | --- |
| V244M | disrupting interaction strength |

Variants of: B3
Conditions: with sdcb1_human SDCBP
Target sequence in this assay (O00560 whole entry): as above

| Variant | effect of a mutation on the interaction |
| --- | --- |
| D1546E | with no effect |

Variants of: B3
Conditions: with sdcb1_human SDCBP
Remark: another data set of the same source
Target sequence in this assay (O00560 whole entry): as above

| Variant | effect of a mutation on the interaction |
| --- | --- |
| D1546E | with no effect |

Variants of: B4
Conditions: with TLE5, Q08117-2

| Variant | effect of a mutation on the interaction |
| --- | --- |
| L107V | with no effect |

Variants of: B5
Conditions: with TLE5, Q08117-2

| Variant | effect of a mutation on the interaction |
| --- | --- |
| R110W | with no effect |
| R112C | with no effect |
| D227Y | with no effect |

Variants of: B6
Conditions: with TLE5, Q08117-2

| Variant | effect of a mutation on the interaction |
| --- | --- |
| I170V | with no effect |
| N197I | with no effect |
